Experimental data taken from patent publication US12655409B2, “Recombinant lysin and its use in the treatment of Gram-negative bacterial infections” (TELUM THERAPEUTICS S.L., priority 2020, dated 2026).

Columns and labels:
[1] = tested on: E. coli ATCC 25922; assay: MIC by microdilution in TP-Na 10 mM pH 6.15; type: cell-based, Escherichia coli
Experimental: The IKB206tags endolysin was purified from the Escherichia coli BL21 (DE3) strain, as previously described.
Checkerboard tests were assessed by the microdilution method, as previously described (Moody JA 1992, Moellering E G., Jr.1996). […] Each microtiter well contained 100 μl of a E. coli inoculum of 1×10^5 CFUs mL^−1, with or without the corresponding compounds, in a final volume of 200 μl of Sodium phosphate (TP-Na) buffer 10 mM pH 6.15 per well and the plates were incubated at 37° C. for 17 h.

[2] = tested on: M. lysodeikticus lyophilized cells; assay: Enzyme specific activity assay (turbidometric, A450 decrease); type: biochemical, Micrococcus lysodeikticus; settings: 37° C., 10 mM Na2HPO4/NaH2PO4 pH 6
Experimental: The specific activity (U mG-1) was determined using a suspension of 0.6 mg mL^−1 of M. lysodeikticus lyophilized cells as substrate resuspended in cold buffer of the enzyme (10 mM Na2HPO4/NaH2PO4, PH 6 for IKB206tags and 50 mM K2HPO4/KH2PO4, pH 6.2 for egg white lysozyme) and incubating this suspension at different concentrations of the enzyme. Egg white lysozyme (Fisher BioReagents™ Lysozyme) was used as a control. Specifically, 100 μL of the M. lysodeikticus suspension were plated, in triplicate, into a multi-well plate and 100 μL of the different enzyme concentrations were added to the corresponding well. The plate was incubated at the appropriate temperature into a thermostated spectrophotometer (37° C. for IKB206tags and 25° C. for egg white lysozyme) and the A450 decrease was monitored over 10 min.
Unit definition: 1 unit is that amount of enzyme needed to catalyze a decrease in absorbance at 450 nm of 0.001/min at the appropriate temperature and pH of each lysozyme in a 1 cm cuvette due to lysis using a ˜0.4-0.6 mg/mL suspension of M. lysodeikticus.

[3] = tested on: E. coli strain DSM 17076 with serotype O157: H7; assay: Enzyme bactericidal activity assay on E. coli serotype O157:H7; type: cell-based, Escherichia coli; settings: 15 μg mL^−1
Experimental: (§1) Briefly, the different bacterial cultures were incubated in the specific media (Table 1) at 37° C. or 30° C., according to the strain, until reaching an A600 of 0.3. The cells were then deposited by centrifugation (4500×g, 10 min) and washed twice with the corresponding buffer, with the A600 being adjusted to ≈0.3. A volume of 160 μl of the bacterial suspension was transferred to sterile 96-well plates to which there were added 40 μl of the enzyme under study in a range of doses comprised between 1 and 60 μg mL^−1. The control wells were treated with the same volume of buffer […]. The plates were incubated at 37° C. Samples were taken at different times, serial dilutions performed, and they were seeded in plates containing the specific medium to determine viable bacteria. The experiments were repeated at least 3 times. The bactericidal effect of IKB206 (and its variants) was quantified as the number of logs reduced in the presence of treatment, after a given incubation time (log10 (N0/Ni), where N0=number of CFU mL^−1 before treatment, and Ni=number of CFU mL^−1 after the corresponding incubation time in the presence of each treatment).

[4] = tested on: E. coli strain ATCC 25922; assay: Enzyme bactericidal activity assay on E. coli ATCC 25922; type: cell-based, Escherichia coli
Experimental: as §1

C[C@@H](O)[C@H]1C(=O)N2C(C(=O)O)=C(SCCN=CN)C[C@H]12 [Imepenem]
MIC [1]: 2.34 µg/mL

C[C@@H](O)[C@H]1C(=O)N2C(C(=O)O)=C(S[C@@H]3CN[C@H](C(=O)N(C)C)C3)[C@H](C)[C@H]12 [Meropenem]
MIC [1]: 0.59 µg/mL

B1: IKB206tags: IKB206 with S-tag at the N-terminal end, 6-His tag at the C-terminal end and thrombin cleavage sites; 329 amino acids (protein)
chain: MKETAAAKFERQHMDSPDLGTLVPRGSMAISDPMKTSPNGIAVTKYFESFEARAYPDPATGGKPYTIGFGTTVYPSGAPVRLGDVCTKEQAEKYLQNDLAKFEKIVSDAVRVPLNQGQFDALVSFTYNLGPANLRSSTLLKKLNAGDYAGAAKEFPRWNRANGKVMKGLTRRRAAEQCLFEGMGGASAIERGVAAANSGTPKNVSRGTSSTKTTPKYKVKNGDNLTKIAKKHNTTVATLLKLNPGIKDPNMIRVGQTLNVTGSGGKTHKVKSGDTLSKIAVDNKTTVSKLMNLNPEITNPNHIKVGQTIRLSLGTLVPRGSLEHHHHHH
modifications: S-tag, 6-His tag, thrombin sites; chimeric endolysin (IKB206tags)
notes: IKB206 with S-tag at the N-terminal end, 6-His tag at the C-terminal end and thrombin cleavage sites; 329 amino acids
specific activity [2]: around 8100 U mg^−1 | bactericidal activity on serotype O157:H7 [3]: significantly reduced the number of E. coli strain DSM 17076 cells, although it was not capable of killing the entire culture | reduction in CFU mL^−1 ([4]; 5 μg mL^−1, 15 min of incubation): significant | incubation time for killing the entire culture ([4]; 15 μg mL^−1): 30 min | reduction of the number of CFU mL^−1 ([4]; 15 μg mL^−1, 5 minutes of incubation): more than 2 logs | incubation time for killing the entire culture ([4]; 60 μg mL^−1): 15 min

B2: IKB206AD8: putative endolysin from phage Arya alone, catalytic domain of IKB206 without the D8 domain (protein)
chain: MKTSPNGIAVTKYFESFEARAYPDPATGGKPYTIGFGTTVYPSGAPVRLGDVCTKEQAEKYLQNDLAKFEKIVSDAVRVPLNQGQFDALVSFTYNLGPANLRSSTLLKKLNAGDYAGAAKEFPRWNRANGKVMKGLTRRRAAEQCLFEGMGGASAIERGVAAA
modifications: Enterobacter phage Arya; (1)..(163) Endolysin
bactericidal activity in the absence of the D8 domain [4]: presented bactericidal activity | incubation times to obtain the same levels of bactericidal activity as IKB206 [4]: longer incubation times were needed | reduction in CFU/mL ([4]; 15 μg mL^−1, 60 minutes): about 3 log | reduction in CFU/mL ([4]; 15 μg mL^−1, 180 minutes): about 5 log
